From patent US20250388669A1 (published 2025)

T1: B7H3 (UniProt Q5ZPR3 29-466, limits assumed)
T1 sequence (looked up): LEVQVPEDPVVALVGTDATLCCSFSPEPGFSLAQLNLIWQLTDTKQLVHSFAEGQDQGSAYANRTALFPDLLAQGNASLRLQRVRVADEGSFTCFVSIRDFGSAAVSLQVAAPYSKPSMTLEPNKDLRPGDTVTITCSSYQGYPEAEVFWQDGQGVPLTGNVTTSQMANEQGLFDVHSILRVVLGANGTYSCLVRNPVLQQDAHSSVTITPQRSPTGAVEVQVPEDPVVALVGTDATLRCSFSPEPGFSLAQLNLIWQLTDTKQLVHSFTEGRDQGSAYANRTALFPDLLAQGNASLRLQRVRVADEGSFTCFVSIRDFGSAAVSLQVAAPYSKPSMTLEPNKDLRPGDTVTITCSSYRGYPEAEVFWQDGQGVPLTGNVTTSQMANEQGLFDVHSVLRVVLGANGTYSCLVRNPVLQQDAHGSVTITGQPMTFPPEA

B1: Ly2438 (bispecific antibody)
heavy 1: QVQLVQSGAEVKKPGASVKVSCKASGYTFTDFWMSWVRQAPGQGLEWMGQIYPNTGTTHSNEKFKGRVTMTRDTSTSTVYMELSSLRSEDTAVYYCARSYHISTTPNWFAYWGQGTLVTVSSASTKGPSVFPLAPSSKSTSGGTAALGCLVKDYFPEPVTVSWNSGALTSGVHTFPAVLQSSGLYSLSSVVTVPSSSLGTQTYICNVNHKPSNTKVDKKVEPKSCGGGGSGGGGSGGGGSGGGGSEVQLVESGGGLVQPGGSLRLSCAASGFTFTNYGLHWVRQAPGKGLEWVSSISPSGGVTYYRDSVKGRFTISRDNSKNTLYLQMNSLRAEDTAVYYCAKPFLGWGGANWIAHWGQGTLVTVSSGGGGSDKTHTCPPCPAPEAAGPSVFLFPPKPKDTLMISRTPEVTCVVVDVSHEDPEVKFNWYVDGVEVHNAKTKPREEQYNSTYRVVSVLTVLHQDWLNGKEYKCKVSNKALPAPIEKTISKAKGQPREPQVYTLPPSREEMTKNQVSLWCLVKGFYPSDIAVEWESNGQPENNYKTTPPVLDSDGSFFLYSKLTVDKSRWQQGNVFSCSVMHEALHNHYTQKSLSLSPG
heavy 2: QVQLVQSGAEVKKPGASVKVSCKASGYTFTDFWMSWVRQAPGQGLEWMGQIYPNTGTTHSNEKFKGRVTMTRDTSTSTVYMELSSLRSEDTAVYYCARSYHISTTPNWFAYWGQGTLVTVSSASTKGPSVFPLAPSSKSTSGGTAALGCLVKDYFPEPVTVSWNSGALTSGVHTFPAVLQSSGLYSLSSVVTVPSSSLGTQTYICNVNHKPSNTKVDKKVEPKSCGGGGSGGGGSGGGGSGGGGSDIQMTQSPSSLSASVGDRVTITCLASEDISNDLAWYQQKPGKAPKLLIYFVDRLLDGVPSRFSGSGSGTDFTLTISSLQPEDFATYYCQQSYKYPPTFGQGTKLEIKGGGGSDKTHTCPPCPAPEAAGPSVFLFPPKPKDTLMISRTPEVTCVVVDVSHEDPEVKFNWYVDGVEVHNAKTKPREEQYNSTYRVVSVLTVLHQDWLNGKEYKCKVSNKALPAPIEKTISKAKGQPREPQVYTLPPSREEMTKNQVSLSCAVKGFYPSDIAVEWESNGQPENNYKTTPPVLDSDGSFFLVSKLTVDKSRWQQGNVFSCSVMHEALHNRFTQKSLSLSPG
light: DIQMTQSPSSLSASVGDRVTITCKASQNVYKKLEWYQQKPGKVPKVLIYHTNILQTGVPSRFSGSGSGTDYTLTISSLQPEDVATYYCYQWNSGPTFGGGTKVEIKRTVAAPSVFIFPPSDEQLKSGTASVVCLLNNFYPREAKVQWKVDNALQSGNSQESVTEQDSKDSTYSLSSTLTLSKADYEKHKVYACEVTHQGLSSPVTKSFNRGEC
notes: PD-L1 Fabs (Ly076) x central CD40 Fv (TM559)
B2: Ly2444 (bispecific antibody, human IgG1, kappa)
heavy 1: QVQLVQSGAEVKKPGASVKVSCKASGYTFTDFWMSWVRQAPGQGLEWMGQIYPNTGTTHSNEKFKGRVTMTRDTSTSTVYMELSSLRSEDTAVYYCARSYHISTTPNWFAYWGQGTLVTVSSASTKGPSVFPLAPSSKSTSGGTAALGCLVKDYFPEPVTVSWNSGALTSGVHTFPAVLQSSGLYSLSSVVTVPSSSLGTQTYICNVNHKPSNTKVDKKVEPKSCDKTHTCPPCPAPEAAGPSVFLFPPKPKDTLMISRTPEVTCVVVDVSHEDPEVKFNWYVDGVEVHNAKTKPREEQYNSTYRVVSVLTVLHQDWLNGKEYKCKVSNKALPAPIEKTISKAKGQPREPQVYTLPPSREEMTKNQVSLWCLVKGFYPSDIAVEWESNGQPENNYKTTPPVLDSDGSFFLYSKLTVDKSRWQQGNVFSCSVMHEALHNHYTQKSLSLSPGGGGGSGGGGSGGGGSGGGGSEVQLVESGGGLVQPGGSLRLSCAASGFTFTNYGLHWVRQAPGKGLEWVSSISPSGGVTYYRDSVKGRFTISRDNSKNTLYLQMNSLRAEDTAVYYCAKPFLGWGGANWIAHWGQGTLVTVSS
heavy 2: QVQLVQSGAEVKKPGASVKVSCKASGYTFTDFWMSWVRQAPGQGLEWMGQIYPNTGTTHSNEKFKGRVTMTRDTSTSTVYMELSSLRSEDTAVYYCARSYHISTTPNWFAYWGQGTLVTVSSASTKGPSVFPLAPSSKSTSGGTAALGCLVKDYFPEPVTVSWNSGALTSGVHTFPAVLQSSGLYSLSSVVTVPSSSLGTQTYICNVNHKPSNTKVDKKVEPKSCDKTHTCPPCPAPEAAGPSVFLFPPKPKDTLMISRTPEVTCVVVDVSHEDPEVKFNWYVDGVEVHNAKTKPREEQYNSTYRVVSVLTVLHQDWLNGKEYKCKVSNKALPAPIEKTISKAKGQPREPQVYTLPPSREEMTKNQVSLSCAVKGFYPSDIAVEWESNGQPENNYKTTPPVLDSDGSFFLVSKLTVDKSRWQQGNVFSCSVMHEALHNRFTQKSLSLSPGGGGGSGGGGSGGGGSGGGGSDIQMTQSPSSLSASVGDRVTITCLASEDISNDLAWYQQKPGKAPKLLIYFVDRLLDGVPSRFSGSGSGTDFTLTISSLQPEDFATYYCQQSYKYPPTFGQGTKLEIK
light: B1 light
notes: PD-L1 Fabs (Ly076) x terminal CD40 Fv (TM559)
B3: Ly1963 (other)
chain 1: QVQLVQSGAEVKKPGASVKVSCKASGYTFTSYVMHWVRQKPGQGLEWIGYINPYNEGTESTDKFKGRATMTSDKSTSTVYMELSSLRSEDTAVYYCASIYYGYEGTYFGVWGQGTLVTVSSASTKGPSVFPLAPSSKSTSGGTAALGCLVKDYFPEPVTVSWNSGALTSGVHTFPAVLQSSGLYSLSSVVTVPSSSLGTQTYICNVNHKPSNTKVDKKVEPKSCGGGGSGGGGSGGGGSGGGGSEVQLVESGGGLVQPGGSLRLSCAASGFTFSTYAMNWVRQAPGKGLEWVGRIRSKYNNYATYYADSVKGRFTISRDDSKNSLYLQMNSLKTEDTAVYYCVRHGNFGNSYVSWFAYWGQGTLVTVSSGGGGSDKTHTCPPCPAPEAAGPSVFLFPPKPKDTLMISRTPEVTCVVVDVSHEDPEVKFNWYVDGVEVHNAKTKPREEQYNSTYRVVSVLTVLHQDWLNGKEYKCKVSNKALPAPIEKTISKAKGQPREPQVYTLPPSREEMTKNQVSLWCLVKGFYPSDIAVEWESNGQPENNYKTTPPVLDSDGSFFLYSKLTVDKSRWQQGNVFSCSVMHEALHNHYTQKSLSLSPGGGGGSGGGGSGGGGSGGGGSQVQLVQSGAEVKKPGASVKVSCKASGYTFAGFEMHWVRQAPGQGLEWMGAIDPKTGGTDYNQKFKDRVTMTRDTSISTAYMELSRLRSDDTAVYYCARDLGYFDVWGQGTLVTVSS
chain 2: QVQLVQSGAEVKKPGASVKVSCKASGYTFTSYVMHWVRQKPGQGLEWIGYINPYNEGTESTDKFKGRATMTSDKSTSTVYMELSSLRSEDTAVYYCASIYYGYEGTYFGVWGQGTLVTVSSASTKGPSVFPLAPSSKSTSGGTAALGCLVKDYFPEPVTVSWNSGALTSGVHTFPAVLQSSGLYSLSSVVTVPSSSLGTQTYICNVNHKPSNTKVDKKVEPKSCGGGGSGGGGSGGGGSGGGGSQAVVTQEPSLTVSPGGTVTLTCRSSTGAVTTSNYANWVQQKPGQAPRGLIGGTNKRAPWTPARFSGSLLGGKAALTITGAQAEDEADYYCALWYSNLWVFGGGTKLTVLGGGGSDKTHTCPPCPAPEAAGPSVFLFPPKPKDTLMISRTPEVTCVVVDVSHEDPEVKFNWYVDGVEVHNAKTKPREEQYNSTYRVVSVLTVLHQDWLNGKEYKCKVSNKALPAPIEKTISKAKGQPREPQVYTLPPSREEMTKNQVSLSCAVKGFYPSDIAVEWESNGQPENNYKTTPPVLDSDGSFFLVSKLTVDKSRWQQGNVFSCSVMHEALHNHYTQKSLSLSPGGGGGSGGGGSGGGGSGGGGSDIQMTQSPSSLSASVGDRVTITCRASQDIRSNLNWYQQKPGGAVKLLIYYTSRLHSGVPSRFSGSGSGTDYTLTISSLQPEDFATYFCQQSEKLPRTFGGGTKVEIR
light: EIVLTQSPATLSLSPGERATLSCRASSSVSYMHWYQQKPGQAPRPWIYATSNLASGIPARFSGSRSGTDYTLTISSLEPEDFAVYYCQQWSSNTLTFGGGTKVEIKRTVAAPSVFIFPPSDEQLKSGTASVVCLLNNFYPREAKVQWKVDNALQSGNSQESVTEQDSKDSTYSLSSTLTLSKADYEKHKVYACEVTHQGLSSPVTKSFNRGEC
notes: Tri-specific antibody B7H3 (two Fabs) / CD3 (central Fv) / CD137 (terminal Fv)
B4: Ly2122 (bispecific antibody, human IgG1, kappa)
chain 1: QVQLVQSGAEVKKPGASVKVSCKASGYTFTSYVMHWVRQKPGQGLEWIGYINPYNEGTESTDKFKGRATMTSDKSTSTVYMELSSLRSEDTAVYYCASIYYGYEGTYFGVWGQGTLVTVSSASTKGPSVFPLAPSSKSTSGGTAALGCLVKDYFPEPVTVSWNSGALTSGVHTFPAVLQSSGLYSLSSVVTVPSSSLGTQTYICNVNHKPSNTKVDKKVEPKSCDKTHTCPPCPAPEAAGPSVFLFPPKPKDTLMISRTPEVTCVVVDVSHEDPEVKFNWYVDGVEVHNAKTKPREEQYNSTYRVVSVLTVLHQDWLNGKEYKCKVSNKALPAPIEKTISKAKGQPREPQVYTLPPSREEMTKNQVSLWCLVKGFYPSDIAVEWESNGQPENNYKTTPPVLDSDGSFFLYSKLTVDKSRWQQGNVFSCSVMHEALHNHYTQKSLSLSPGGGGGSGGGGSGGGGSGGGGSQVQLVQSGAEVKKPGASVKVSCKASGYTFAGFEMHWVRQAPGQGLEWMGAIDPKTGGTDYNQKFKDRVTMTRDTSISTAYMELSRLRSDDTAVYYCARDLGYFDVWGQGTLVTVSS
chain 2: QVQLVQSGAEVKKPGASVKVSCKASGYTFTSYVMHWVRQKPGQGLEWIGYINPYNEGTESTDKFKGRATMTSDKSTSTVYMELSSLRSEDTAVYYCASIYYGYEGTYFGVWGQGTLVTVSSASTKGPSVFPLAPSSKSTSGGTAALGCLVKDYFPEPVTVSWNSGALTSGVHTFPAVLQSSGLYSLSSVVTVPSSSLGTQTYICNVNHKPSNTKVDKKVEPKSCDKTHTCPPCPAPEAAGPSVFLFPPKPKDTLMISRTPEVTCVVVDVSHEDPEVKFNWYVDGVEVHNAKTKPREEQYNSTYRVVSVLTVLHQDWLNGKEYKCKVSNKALPAPIEKTISKAKGQPREPQVYTLPPSREEMTKNQVSLSCAVKGFYPSDIAVEWESNGQPENNYKTTPPVLDSDGSFFLVSKLTVDKSRWQQGNVFSCSVMHEALHNRFTQKSLSLSPGGGGGSGGGGSGGGGSGGGGSDIQMTQSPSSLSASVGDRVTITCRASQDIRSNLNWYQQKPGGAVKLLIYYTSRLHSGVPSRFSGSGSGTDYTLTISSLQPEDFATYFCQQSEKLPRTFGGGTKVEIR
light: B3 light
notes: Bispecific B7H3 (two Fabs) / CD137 (terminal Fv)

Columns and labels:
CD40 = CD40 (UniProt P25942 21-193, limits assumed); assay: FCM or ELISA, graded
PD-L1 (binding assay) = PD-L1 (binding assay) (UniProt Q9NZQ7 19-238, limits assumed); assay: FCM or ELISA, graded
CD137 = target: T2, CD137 (UniProt Q07011 24-186, limits assumed); assay: FCM or ELISA (graded summary table)
T2 construct: also called 4-1BB

B7H3 = target: T1, B7H3; assay: FCM or ELISA (graded summary table)

Sequence of PD-L1 (binding assay) (Q9NZQ7 19-238 limits assumed): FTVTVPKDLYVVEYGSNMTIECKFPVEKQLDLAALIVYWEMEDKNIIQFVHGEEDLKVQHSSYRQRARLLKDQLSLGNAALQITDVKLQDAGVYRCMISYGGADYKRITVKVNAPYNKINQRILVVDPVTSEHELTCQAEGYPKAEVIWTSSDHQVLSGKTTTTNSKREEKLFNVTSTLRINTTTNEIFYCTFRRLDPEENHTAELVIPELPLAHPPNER
Sequence of CD40 (P25942 21-193 limits assumed): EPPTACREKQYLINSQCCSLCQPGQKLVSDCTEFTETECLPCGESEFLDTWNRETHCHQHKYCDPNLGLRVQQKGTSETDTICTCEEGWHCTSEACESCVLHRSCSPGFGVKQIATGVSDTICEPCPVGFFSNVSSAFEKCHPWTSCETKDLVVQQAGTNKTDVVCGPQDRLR

Row | Binder | binding result (CD40) | binding result (PD-L1 (binding assay)) | binding result (CD137) | binding result (B7H3)
1 | B1 | binds | binds |  | 
2 | B2 | binds | binds |  | 
3 | B3 |  |  | binds | binds
4 | B4 |  |  | binds | binds
